Literature values as cited in publication PMC8141935.

Target: GABAA receptor α3 subunit intracellular loop (UniProt P34903)
Sequence (P34903 361-457): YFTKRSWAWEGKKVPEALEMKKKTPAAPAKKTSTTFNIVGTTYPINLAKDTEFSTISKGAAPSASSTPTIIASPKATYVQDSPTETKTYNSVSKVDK

gephyrin, sequence (Q9NQX3 whole entry): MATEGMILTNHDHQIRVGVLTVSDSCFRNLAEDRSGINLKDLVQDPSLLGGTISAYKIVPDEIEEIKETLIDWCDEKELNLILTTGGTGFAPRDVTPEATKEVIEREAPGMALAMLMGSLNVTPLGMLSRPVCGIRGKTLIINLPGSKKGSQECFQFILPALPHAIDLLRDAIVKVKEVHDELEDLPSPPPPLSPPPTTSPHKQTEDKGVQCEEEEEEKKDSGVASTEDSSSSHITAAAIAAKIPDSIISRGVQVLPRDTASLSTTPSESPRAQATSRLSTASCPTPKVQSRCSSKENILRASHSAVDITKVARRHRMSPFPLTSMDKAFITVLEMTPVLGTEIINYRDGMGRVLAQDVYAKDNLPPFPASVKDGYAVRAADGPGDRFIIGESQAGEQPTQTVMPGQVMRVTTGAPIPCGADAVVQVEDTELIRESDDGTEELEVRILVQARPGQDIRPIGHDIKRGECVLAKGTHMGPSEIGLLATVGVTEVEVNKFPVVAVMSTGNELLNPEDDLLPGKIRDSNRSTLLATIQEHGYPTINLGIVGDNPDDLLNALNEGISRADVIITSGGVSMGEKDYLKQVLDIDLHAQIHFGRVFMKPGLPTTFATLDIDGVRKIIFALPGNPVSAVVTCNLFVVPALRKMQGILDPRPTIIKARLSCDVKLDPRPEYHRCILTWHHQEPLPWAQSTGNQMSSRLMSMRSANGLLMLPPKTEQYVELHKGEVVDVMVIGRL

Kd: 5.3 µM
Substance: gephyrin (from UniProt Q9NQX3)
